# Measurements from the nanobody polyreactivity screen of Harvey et al. (2022).
# Test: yeast display, Sf9 membrane polyspecificity reagent, FACS + sequencing; frameworks hold sequencing errors
# Outline: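 After 36–48 hours of galactose induction, yeast (Saccharomyces cerevisiae BJ5465) displaying a synthetic nanobody library were stained at 4 °C for 1 hour with 10% biotinylated, detergent-solubilized Sf9 membrane reagent. Streptavidin microbeads enriched the stained cells before FACS sorting into low and high (top ~1%) gates on anti-HA and streptavidin fluorescence. Each clone's polyreactivity label reflects its gate of origin.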
row,Sequence,polyreactivity (PSR sort gate)
1,QVQLVESGGGLVQAGGSLRLSCAASGFIFKIYAMGWYRQAPGKERELVAAISSGDNTNYADSVKGRFTISRDNAKNTVYLQMNSLKPEDTAVYYCAARAYRWRSFSTMYYWGQGTQVTVSS,high polyreactivity
2,QVQLVESGGGLVQAGGSLRLSCAASGFIFKKYAMGWYRQAPGKERELVAAISWSGGNTYYADSVKGRFTISRDNAKNTVYLQMNSLKPEDTAVYYCNAAGRRYKFDYWGQGTQVTVSS,high polyreactivity
3,QVQLVESGGGLVQAGGSLRLSCAASGFIFKRYAMGWYRQAPGKERELVAAISTYSGGRTYYADSVKGRFTISRDNAKNSVYLQMNSLKPEDTAVYYCNARKYVGFWSRYDYWGQGTQVTVSS,high polyreactivity
4,QVQLVESGGGLVQAGGSLRLSCAASGFIFKRYAMGWYRQAPGKERELVAAITGSGSRTYYADSVKGRFTISRDNAKNTVYLQMNSLKPEDTAVYYCNKDRRPTADFGYWGQGTQVTVSS,high polyreactivity
5,QVQLVESGGGLVQAGGSLRLSCAASGFIFKRYGMGWYRQAPGKERELVAAISYSGGSTYYADSVKGRFTISRDNAKNTVYLQMNSLKPEDTAVYYCKATIHYNAGWTMGSWGQGTQVTVSS,high polyreactivity
6,QVQLVESGGGLVQAGGSLRLSCAASGFIFKRYTMGWYRPAPGKERELVATINWNGGNTYYADSVKGRFTISRDNAKNTVYLQMNSLKPEDTAVYYCNARYWRGQGWPGYDYWGQGTQVTVSS,high polyreactivity
7,QVQLVESGGGLVQAGGSLRLSCAASGFIFKVYAMGWYRQAPGKERELVAAISSRGGRTNYADSVKGRFTISRDNAKNTVYLQMNSLKPEDTAVYYCATGAAGAYDYWGQGTQVTVSS,high polyreactivity
8,QVQLVESGGGLVQAGGSLRLSCAASGFIFKYYTMGWYRPAPGNERELVAAISKNAGSTYYADSVKGRFTISRDNAKNTVYLQMNSLKPEDTAVYYCARTYSTWYYYWGQGTQVTVSS,high polyreactivity
9,QVQLVESGGGLVQAGGSLRLSCAASGFIFLAYTMGWYRQAPGKERELVAAISTSGGSTYYEDSVKGRFTISRDNAKNTVYLQMNSLKPEDTAVYYCAARYRWGRYDYWGQGTQVTVSS,high polyreactivity
10,QVQLVESGGGLVQAGGSLRLSCAASGFIFLDNAMGWNRQAPGKERELVDAISSTGSTYADSVKGRFTISRDNAKNTVYLQMNSLKPEDTAVYYCAADIEVSWDDDGYYPEYDYWGQGTQVTVSS,low polyreactivity
11,QVQLVESGGGLVQAGGSLRLSCAASGFIFLGNAMGWYRQAPGKERELVAAISSGGSTYADSVKGRFTISRDNAKNTVYLQMNSLKPEDTAVYYCAVDRAFRAQNYHEYDYWGQGTQVNVSS,low polyreactivity
12,QVQLVESGGGLVQAGGSLRLSCAASGFIFLGYAMGWYRPAPGKERELVATITWRGGSTYYADSVKGRFTISRDNAKNTVYLQMNSLKPEDTAVYYCAATRGWLHSFARDDHDYWGQGTQVTVSS,high polyreactivity
13,QVQLVESGGGLVQAGGSLRLSCAASGFIFLGYAMGWYRQAPGKEREFVAGITITGGSTYYADSVKGRFTISRDNAKNTVYLQMNSLKPEDTAVYYCNAESNLYRRRRNYWGQGTQVTVSS,low polyreactivity
14,QVQLVESGGGLVQAGGSLRLSCAASGFIFLLYDMGWYRQAPGKERELVAAITSDGTTNYADSVKGRFTISRDNAKNTVYLQMNSLKPEDTAVYYCAADGFTRWGRYDYWGQGTQVTVSS,high polyreactivity
15,QVQLVESGGGLVQAGGSLRLSCAASGFIFLPYAKGWYRQAPGKERELVAAITRGGRTYYADSVKGRFTISRDNAKNTVYLQMNSLKPEDTAVYYCAATTYLVWGYNYWGQGTQVTVSS,low polyreactivity
16,QVQLVESGGGLVQAGGSLRLSCAASGFIFLPYAMGWARQAPGKERELVAAITRGGRTYYADSVKGRFTISRDNAKNTVYLQMNSLKPEDTAVYYCAATTYLVWGYNYWGQGTQVTVSS,low polyreactivity
17,QVQLVESGGGLVQAGGSLRLSCAASGFIFLPYAMGWYRQAPGKERELVAAITRGGRTYYADSVKGRFTISRDNAKNTVYLKMNSLKPEDTAVYYCAATTYLVWGYNYWGQGTQVTVSS,low polyreactivity
18,QVQLVESGGGLVQAGGSLRLSCAASGFIFLSYGMGWYRPAPGKERELVASITSDGGSTYYADSVKGRFTISRDNAKNTVYLQMNSLKPEDTAVYYCAADSVSPWYYGWYYRYRGYGYWGQGTQVTVSS,low polyreactivity
19,QVQLVESGGGLVQAGGSLRLSCAASGFIFLVNAMGWYRRGPGTERELVAAISKSTGGTYYADSVKGRFTISRDNAKNTVYLQMNSLKPEDTAVYYCAADEVYPVQRDMDYWGQGTQVTVSS,low polyreactivity
20,QVQLVESGGGLVQAGGSLRLSCAASGFIFLVYAMGWYRQAPGKERELVAAISASGGRTYYADSVKGRFTISRDNAKNTVYLQMNSLKPEYTAVYYCARLLPTPGKPILDYWGQGTQVTVSS,low polyreactivity
21,QVQLVESGGGLVQAGGSLRLSCAASGFIFNAYAMGWYRQAPGKERELVAAVSWSGARTYYADSVKGRFTISRDNAKNTVYLQMNSLKPEDTAVYYCAAEYSGVHYQQAYDYSEGLDYWGQGTQVTVSS,low polyreactivity
22,QVQLVESGGGLVQAGGSLRLSCAASGFIFNFYAMGLYRQAPGKERELVAAISRSGGGTYYADSVKGRFTISRDNAKYTVYFQMNSLKPEDTAVYSCNVDKYRIVGFHSPYDYWGQGTQVTVSS,high polyreactivity

row,Sequence,polyreactivity (PSR sort gate)
1,QVQLVESGGGLVQAGGSLRLSCAASGFIFNHYAMGWYRQAPGKEREFVAAISWSGTRTYYADSVKGRFTISRDNAKNTVYLQMNSLKPEDTSVYYCAADVWGPYDYWGQGTQLTVSS,low polyreactivity
2,QVQLVESGGGLVQAGGSLRLSCAASGFIFNKNAMGWYRQAPGKERELVAAITFGGGTTYYADSVKGRFTISRDNAKNTVYLQMNSLKPEDTAVYYCNAVYYWYKGDYWGQGTQVTVSS,high polyreactivity
3,QVQLVESGGGLVQAGGSLRLSCAASGFIFNRYAMGWYRQAPGKERELVAGITSSGGSTYYADSVKGRFTISRDNAKNTVYLQMNSLKPEDTAVYYCNADSWLYRFFGYDYWGQGTQVTVSS,low polyreactivity
4,QVQLVESGGGLVQAGGSLRLSCAASGFIFNTNAMGWYRQAPGKERELVAGISRSGVRTYYADSVKGRFTISRDNAKNTVFLQMNSLKPEDTAVYYCAATSLPRYYYWGQGTQVTVSS,low polyreactivity
5,QVQLVESGGGLVQAGGSLRLSCAASGFIFPENDMGWYRQAPGKERELVATISGDTSTNYADSVKGRFTISRDNAKHTVYLQMNSLKPEDTAVYYCNRKLKGRKSHKLDYDYWGQGTQVTVSS,low polyreactivity
6,QVQLVESGGGLVQAGGSLRLSCAASGFIFPKNAMGWYRQAPGKERELVAAISKRGGSTYYADSVKGRFTISRDNAKNTVYLQMNSLKPEDTAVYYCADGYRTRRGLGYYYWGQGTQVTVSS,high polyreactivity
7,QVQLVESGGGLVQAGGSLRLSCAASGFIFPLYTMGWYRQAPGKEREVVAAISWIGGRTYYADSVKGRFTISRDFAKNTVYLQMISLKPEDTAVYFCGKDPSGGGYGYDYWGQGTQVTVTS,low polyreactivity
8,QVQLVESGGGLVQAGGSLRLSCAASGFIFPNYAMGWYRQAPGKVRELVAAISVRGGNTYYADSVKGRFTISRDNAKNTVYLQMNSLKPEDTAVYYCNAVLRSGYFPEYYYWGQVTQVTVSS,high polyreactivity
9,QVQLVESGGGLVQAGGSLRLSCAASGFIFPQYAMGWYRQAPGKERELVAAISWSGTRTYYADSVKGRFTISRDNAKNTVYLQMNSLKPEDTAVYYCAARIDRQYRWTGFGYWGQGTQVTVSS,high polyreactivity
10,QVQLVESGGGLVQAGGSLRLSCAASGFIFPRYAMGWYRQAPGKERELVAAISYSGGSTYYADSVKGRFTISRDNAKNTVYLQMNSLKPEDTAVYYCAARLFKDSWMDYWGQGTQVTVSS,high polyreactivity
11,QVQLVESGGGLVQAGGSLRLSCAASGFIFPRYAMGWYRQAPGQERELVAAISKSGGRTYYADSGKGRFTISRDYAKNTFYLQMNSLNPEDTAVYYCAAGRISRFSRYYYWGQGTQVTVSS,high polyreactivity
12,QVQLVESGGGLVQAGGSLRLSCAASGFIFPRYAMGWYRQAPGTERELVAAISRGGRTNYADSVKGRFTISRDNAKNTVYFQMNSLKPEDTAVYYCAKKYYLSGSRADDSWGQGTQVTVSS,high polyreactivity
13,QVQLVESGGGLVQAGGSLRLSCAASGFIFPTYAMGWYRQATGKERELVAAISYRGGITSYADSVKGRFTISRDNAKNTVYLQMNSLKPEDSAVYYCAARGAWGYEYWGQGTQVTVSS,low polyreactivity
14,QVQLVESGGGLVQAGGSLRLSCAASGFIFPVNAMGWYRQAPGKERELVAGISRGGRTNYADSVKGRFTISRDNAKYSVYLQMNSLKPEDTAVYYCAAESYRAYKYDSWGQGTQVTVSS,low polyreactivity
15,QVQLVESGGGLVQAGGSLRLSCAASGFIFPVYAMGWYRQAPGKERELVAAIRRGGSTNYADSVKGRFTISRDNAKNTVYLQMNSLKPEDTAVYYCAVEYQSPDDYWGQGTQVTVSS,low polyreactivity
16,QVQLVESGGGLVQAGGSLRLSCAASGFIFPWNAMGWYRQAPGKERELVAAISFSGGSTYYADSVKGRFTISRDNAKNTVYLQMNSLKPEDTAVYYCAKRTWDLRRTRHYYWGQGTQVTVSS,low polyreactivity
17,QVQLVESGGGLVQAGGSLRLSCAASGFIFPWYTMGWYRQAPGKERELVAVINQSGGSTYYADSVKGRFTISRDNAKNPVYLQMNSLKPEDTAVDYCAAKSYYSWGQGTQVTVSS,high polyreactivity
18,QVQLVESGGGLVQAGGSLRLSCAASGFIFPYNAMGWYRQAPGKDRELVAAISWSGSNTYYADSVNGRFTISRDNAMNTVYLQMNSLKPEDTAVYYCAARHSVYYFVQRNGRYGYWGQGTQVTVSW,high polyreactivity
19,QVQLVESGGGLVQAGGSLRLSCAASGFIFPYNAMGWYRQAPGKERELVAGITSSGGGTYYADSVKGRFTISRDNAKNTVYLQMNSLKPEDTAVYYCNKVWSYHLYPYDYWGQGTQVTVSS,high polyreactivity
20,QVQLVESGGGLVQAGGSLRLSCAASGFIFPYNAMGWYRQAPGKERELVAVISSSGGDTYYADSVKGRFTISRDNAKNTVYLQMNSLKPEDTAVYYCAADSYYGYEYWGQGTQVTVSS,low polyreactivity
21,QVQLVESGGGLVQAGGSLRLSCAASGFIFPYYAMGWYRPAPGKERELVAAITSSGGSTYYADSVKGRFTISRDNAKNTVYLQMNSLKPEDTAVYYFNAYVRRTRVYDYWGQGTLVTVSS,high polyreactivity
